± gives the standard deviation of the averaged measurements.
Experiment: total protein half-life in vivo (active degradation + dilution); higher = more stable protein
[1] = E. coli NCM3722 delta-clpP delta-lon delta-hslV, growth: N-lim chemostat, doubling time 6 h
[2] = E. coli NCM3722 delta-clpP, growth: N-lim chemostat, doubling time 6 h
[3] = E. coli NCM3722 delta-hslV, growth: N-lim chemostat, doubling time 6 h
[4] = E. coli NCM3722 delta-lon, growth: N-lim chemostat, doubling time 6 h
[5] = E. coli NCM3722 delta-smpB, growth: N-lim chemostat, doubling time 6 h
[6] = wild type E. coli NCM3722, growth: C-lim chemostat, doubling time 3 h
[7] = wild type E. coli NCM3722, growth: C-lim chemostat, doubling time 6 h
[8] = wild type E. coli NCM3722, growth: C-lim chemostat, doubling time 12 h
[9] = wild type E. coli NCM3722, growth: N-lim chemostat, doubling time 6 h
[10] = wild type E. coli NCM3722, growth: N-lim chemostat, doubling time 12 h
[11] = wild type E. coli NCM3722, growth: P-lim chemostat, doubling time 6 h
[12] = wild type E. coli NCM3722, growth: P-lim chemostat, doubling time 12 h

Sequence | total protein half-life in vivo [1] | total protein half-life in vivo [2] | total protein half-life in vivo [3] | total protein half-life in vivo [4] | total protein half-life in vivo [5] | total protein half-life in vivo [6] | total protein half-life in vivo [7] | total protein half-life in vivo [8] | total protein half-life in vivo [9] | total protein half-life in vivo [10] | total protein half-life in vivo [11] | total protein half-life in vivo [12]
MNAWEVNFDGLVGLTHHYAGLSFGNEASTRHRFQVSNPRLAAKQGLLKMKALADAGFPQAVIPPHERPFIPVLRQLGFSGSDEQVLEKVARQAPHWLSSVSSASPMWVANAATIAPSADTLDGKVHLTVANLNNKFHRSLEAPVTESLLKAIFNDEEKFSVHSALPQVALLGDEGAANHNRLGGHYGEPGMQLFVYGREEGNDTRPSRYPARQTREASEAVARLNQVNPQQVIFAQQNPDVIDQGVFHNDVIAVSNRQVLFCHQQAFARQSQLLANLRARVNGFMAIEVPATQVSVSDTVSTYLFNSQLLSRDDGSMMLVLPQECREHAGVWGYLNELLAADNPISELKVFDLRESMANGGGPACLRLRVVLTEEERRAVNPAVMMNDTLFNALNDWVDRYYRDRLTAADLADPQLLREGREALDVLSQLLNLGSVYPFQREGGGNG | 4.1 ± 0.25 h | 2.42 ± 0.32 h | 2.8 ± 0.29 h | 2.88 ± 0.035 h | 2.75 ± 0.14 h | 3.06 ± 0.31 h | 5.17 ± 0.51 h | 8.64 ± 0.32 h | 2.74 ± 0.35 h | 3.749 ± 0.0089 h | 5.69 ± 0.31 h | 9.79 ± 1.5 h
MSKIKGNVKWFNESKGFGFITPEDGSKDVFVHFSAIQTNGFKTLAEGQRVEFEITNGAKGPSAANVIAL [P0A972] | 3.54 ± 0.22 h | 2.27 ± 0.041 h | 1.7 ± 0.036 h | 3.44 ± 0.12 h | 1.96 ± 0.28 h | 2.156 ± 0.014 h | 2.37 ± 0.17 h | 2.62 ± 0.54 h | 1.8 ± 0.15 h | 2.23 ± 0.19 h | 1.945 ± 0.018 h | 3.16 ± 0.3 h
MQKLKQQVFEANMELPRYGLVTFTWGNVSAIDRERGLVVIKPSGVAYETMKAADMVVVDMSGKVVEGEYRPSSDTATHLELYRRYPSLGGIVHTHSTHATAWAQAGLAIPALGTTHADYFFGDIPCTRGLSEEEVQGEYELNTGKVIIETLGNAEPLHTPGIVVYQHGPFAWGKDAHDAVHNAVVMEEVAKMAWIARGINPQLNHIDSFLMNKHFMRKHGPNAYYGQK | 4.02 ± 1.1 h | – | – | – | – | – | – | – | – | – | – | –
MDRIIQSPGKYIQGADVINRLGEYLKPLAERWLVVGDKFVLGFAQSTVEKSFKDAGLVVEIAPFGGECSQNEIDRLRGIAETAQCGAILGIGGGKTLDTAKALAHFMGVPVAIAPTIASTDAPCSALSVIYTDEGEFDRYLLLPNNPNMVIVDTKIVAGAPARLLAAGIGDALATWFEARACSRSGATTMAGGKCTQAALALAELCYNTLLEEGEKAMLAAEQHVVTPALERVIEANTYLSGVGFESGGLAAAHAVHNGLTAIPDAHHYYHGEKVAFGTLTQLVLENAPVEEIETVAALSHAVGLPITLAQLDIKEDVPAKMRIVAEAACAEGETIHNMPGGATPDQVYAALLVADQYGQRFLQEWE [P0A9S5] | 4.72 ± 0.17 h | 4.2 ± 0.78 h | 4.13 ± 0.15 h | 4.432 ± 0.034 h | 3.52 ± 0.49 h | 3.07 ± 0.084 h | 5.75 ± 0.4 h | 11.7 ± 0.7 h | 4.8 ± 0.91 h | 6.5 ± 0.44 h | 6.33 ± 0.13 h | 13 ± 0.35 h
MATTHLDVCAVVPAAGFGRRMQTECPKQYLSIGNQTILEHSVHALLAHPRVKRVVIAISPGDSRFAQLPLANHPQITVVDGGDERADSVLAGLKAAGDAQWVLVHDAARPCLHQDDLARLLALSETSRTGGILAAPVRDTMKRAEPGKNAIAHTVDRNGLWHALTPQFFPRELLHDCLTRALNEGATITDEASALEYCGFHPQLVEGRADNIKVTRPEDLALAEFYLTRTIHQENT | 4.65 ± 0.39 h | 5.096 ± 0.047 h | 5.2 ± 1.2 h | 4.6 ± 2.6 h | 4.66 ± 0.47 h | 3.29 ± 0.43 h | 6.7 ± 1.2 h | 10.6 ± 1.2 h | 5.66 ± 1.1 h | 8.34 ± 2 h | – | 11.96 ± 0.058 h
MSLPSIPSFVLSGLLLICLPFSSFASATTSHISFSYAARQRMQNRARLLKQYQTHLKKQASYIVEGNAESKRALRQHNREQIKQHPEWFPAPLKASDRRWQALAENNHFLSSDHLHNITEVAIHRLEQQLGKPYVWGGTRPDKGFDCSGLVFYAYNKILEAKLPRTANEMYHYRRATIVANNDLRRGDLLFFHIHSREIADHMGVYLGDGQFIESPRTGETIRISRLAEPFWQDHFLGARRILTEETIL | – | – | – | – | – | – | – | 3.06 h | – | – | – | –
MAEIGIFVGTMYGNSLLVAEEAEAILTAQGHKATVFEDPELSDWLPYQDKYVLVVTSTTGQGDLPDSIVPLFQGIKDSLGFQPNLRYGVIALGDSSYVNFCNGGKQFDALLQEQSAQRVGEMLLIDASENPEPETESNPWVEQWGTLLS | 6.12 ± 0.9 h | 6.03 ± 1.5 h | 5.34 ± 0.23 h | 6 ± 0.2 h | 5.34 ± 0.1 h | 3.57 ± 0.5 h | 5.8 ± 0.3 h | 13.42 ± 0.023 h | 5.7 ± 0.42 h | 9.75 ± 0.96 h | 6.03 ± 0.35 h | –
MLRLLEEKIATPLGPLWVICDEQFRLRAVEWEEYSERMVQLLDIHYRKEGYERISATNPGGLSDKLREYFAGNLSIIDTLPTATGGTPFQREVWKTLRTIPCGQVMHYGQLAEQLGRPGAARAVGAANGSNPISIVVPCHRVIGRNGTMTGYAGGVQRKEWLLRHEGYLLL [P0AFH0] | 5.81 ± 0.46 h | 4.8 ± 0.28 h | 6.05 ± 1.3 h | – | 3.86 ± 0.21 h | 2.61 h | 5.29 ± 0.24 h | 10.4 ± 0.61 h | 4.55 ± 0.71 h | 7.793 ± 0.026 h | 5.07 ± 0.087 h | 8.9 ± 0.66 h
MQQVFFQETEFLNSVIDYDHKVETENLCLDIAYGTDKNFLFGCGISIASILKYNEGSRLCFHIFTDYFGDDDRKYFDALALQYKTRIKIYLINGDRLRSLPSTKNWTHAIYFRFVIADYFINKAPKVLYLDADIICQGTIEPLINFSFPDDKVAMVVTEGQADWWEKRAHSLGVAGIAKGYFNSGFLLINTAQWAAQQVSARAIAMLNEPEIIKKITHPDQDVLNMLLADKLIFADIKYNTQFSLNYQLKESFINPVTNDTIFIHYIGPTKPWHDWAWDYPVSQAFMEAKNASPWKNTALLKPNNSNQLRYSAKHMLKKHRYLKGFSNYLFYFIEKIKH | 6.72 ± 0.28 h | – | 5.66 ± 0.42 h | 5.78 ± 0.3 h | 5.82 ± 0.17 h | 2.95 ± 0.088 h | 5.41 ± 0.61 h | 10.4 ± 1.1 h | 5.16 ± 1.2 h | 11.7 ± 0.74 h | 5.85 ± 0.45 h | 11.3 ± 1 h

Source: the supplement of paper PMC11246515
